Consider 18 sequences from the supplement of paper PMC12764529.

A short description of data set [1]: folding stability dG unfold from trypsin proteolysis; higher = more stable. As to the method: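 Folding stability of de novo designed mini-proteins (<80 aa, no Cys; designed by TrROS, TrMRF, ProteinMPNN and the joint model) was measured by cDNA display proteolysis with trypsin and chymotrypsin. Each protease was used at 11 concentrations in a threefold dilution series plus a no-protease condition. K50 was inferred by Bayesian fitting of sequencing counts, and dG unfold was derived against a sequence-predicted unfolded-state K50 (Tsuboyama et al. method). Sequences shown include variable-length N-terminal GS-type padding (SAGGSAGG...) inside a display construct carrying a PA tag. Rows were kept only if the AF2 dimer inter-PAE was >15, to exclude likely homo-oligomers.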

Data set [2] can be described thus: folding stability dG unfold (combined trypsin and chymotrypsin); higher = more stable. In a few lines:
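Bayesian fitting of sequencing counts gave K50 for each design. Unfolding free energy followed by setting this against a sequence-predicted unfolded-state K50 and a shared folded-state K50, either per protease or with trypsin and chymotrypsin combined. The designs, under 80 residues and lacking cysteine, were digested in a PA-tagged cDNA display format at 11 threefold-diluted protease concentrations and without protease, and only those with AlphaFold2 dimer inter-PAE above 15 were kept.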

± gives the half width of the 95% confidence interval.

Take “SAGGSAGGSSMPVKVTRTPVPSSAPPSTEFLETVTYPDGTVTTYRFRRDDGSVTSVRVSTSPASAGGSAGGS [r12_1049_JUSTAS]”: the “folding stability dG unfold” value was -0.535 ± 0.71 kcal/mol in data set [1] and below -1 kcal/mol in data set [2].

Take “SAGGSAGGSSPPVVTVEKYSEEPSPGVLRAVIRHPDGKEIVVTFEDLSPEEAKARAEEVAKLGSAGGSAGGS [r20_181_JUSTAS]”: the “folding stability dG unfold” value in data set [1] is 0.00637 ± 0.068 kcal/mol; in data set [2], below -1 kcal/mol.

Turning to “SAGGSAKLEINIIIPGMPPERAKRKARNIAAELRKQGLPKENIKDVDIKVIVMPWRRDPDNKWKPMSAGGSA [r15_684_TrROS]”, the figures for the “folding stability dG unfold” value in data set [1] and in data set [2] were 0.506 ± 0.079 kcal/mol and -0.0462 ± 0.12 kcal/mol, respectively.

For the sequence “SAGGSAMEVKIIPGSKEAIINDPENGKPIPATIIEIEPIEPDKNLFKAKVKIPSNGGWKEVLVDLGSAGGSA [r15_209_TrMRF]”, the “folding stability dG unfold” value in data set [1] is -1.23 ± 0.39 kcal/mol; in data set [2], below -1 kcal/mol.

With “SAGGSAMKTLTATFSDGRSVTVEPENRTVTVSTPESSISTIPVPPDVPEVTITTPSGVTITLTVDTSAGGSA [r2_385_JUSTAS]”, the entries for the “folding stability dG unfold” value in data set [1] and in data set [2] were 0.287 ± 0.083 kcal/mol and -0.107 ± 0.12 kcal/mol, respectively.

In the case of “SAGGSAMPPEWQREVVLTPVEIDIPEPPEVEVVEYDPSTGTITISVPKSPLTLTYDALTGTVHTIGSAGGSA [r15_452_JUSTAS]”, the figures for the “folding stability dG unfold” value in data set [1] and in data set [2] were -0.488 ± 0.61 kcal/mol and -0.873 ± 0.47 kcal/mol, respectively.

Regarding “SAGGSAPVTPDELVERVMQYIQGQNGMPPGDTPEQMRDNGMPIKIPITVEDPDGEPIAEVEIEFPMSAGGSA [r15_391_TrROS]”, the figures for the “folding stability dG unfold” value in data set [1] and in data set [2] were 0.637 ± 0.054 kcal/mol and -0.0929 ± 0.24 kcal/mol, respectively.

In the case of “SAGGSASLDIVEELIEEEIKDSKGTKIKILKPIIYYPGKGLVLSNVTVYKPDGTKISTEKKIEPVGSAGGSA [r15_967_JUSTAS]”, the figures for the “folding stability dG unfold” value in data set [1] and in data set [2] were -0.635 ± 0.25 kcal/mol and below -1 kcal/mol, respectively.

On to “SAGGSDLITTEETFVGPGGEITLRTTTVDPKTGKTTTTTTTIPVIKGPPSDPAKIEAELKKRGIPLSAGGSA [r2_304_JUSTAS]”, for which the results for the “folding stability dG unfold” value in data set [1] and in data set [2] were -0.186 ± 0.12 kcal/mol and -0.799 ± 0.29 kcal/mol, respectively.

Turning to “SAGGSEKLLEEIKEKEFNIPPFIDPKTGKEYPGAKVKVKEAKKIKDTKKIKLIVETPEGKHEFILGSAGGSA [r2_314_TrMRF]”, the figures for the “folding stability dG unfold” value in data set [1] and in data set [2] were 0.324 ± 0.22 kcal/mol and below -1 kcal/mol, respectively.

For the sequence “SAGGSETITIEIEINGAKIKLTFTKNEDGTLTVTAEITLPNGKKLRVTMEFDKKTKEWKITSIEPVSAGGSA [r2_402_TrROS_Hall]”, the “folding stability dG unfold” value in data set [1] was 4.37 ± 0.39 kcal/mol; in data set [2], above 6 kcal/mol.

In the case of “SAGGSGLRVGDVVEAEGVVVPDPETRLRRAVFRFPDFVVVEVVEVPEDVAPDEEIPFPVRIDAIVPSAGGSA [r2_113_TrMRF]”, the entries for the “folding stability dG unfold” value in data set [1] and in data set [2] were -0.512 ± 0.19 kcal/mol and -0.645 ± 0.17 kcal/mol, respectively.

As for “SAGGSIIIRGPSPDQAEEAARAFAKNFREQFPENPNMEIPVKVEYEDPENGQRQEYEAEIKIPYPDSAGGSA [r2_393_TrROS]”, the “folding stability dG unfold” value in data set [1] is 0.0648 ± 0.16 kcal/mol; in data set [2], below -1 kcal/mol.

As to “SAGGSMVTETLSVEETVEPLPDGLVRVPVRTEIRVTRKDPTTGKWTTELRTEEVVLVVPASGLEAASAGGSA [r2_184_JUSTAS]”, the “folding stability dG unfold” value was found to be 0.804 ± 0.02 kcal/mol in data set [1] and 0.195 ± 0.053 kcal/mol in data set [2].

For the sequence “SAGGSPIYVRIEWEPPGNGKEREKEIPIKNVDSPDQLVDEAKEEAMKDGGPIKDIEVYDPDDGRPFPLSAGG [r13_771_TrROS]”, the results for the “folding stability dG unfold” value in data set [1] and in data set [2] were 0.598 ± 0.11 kcal/mol and -0.192 ± 0.53 kcal/mol, respectively.

For the sequence “SAGGSQEFKFEILVPFDSPEEAKEEAEEIAKILQDHGLDVKVKVERDPNGAVKVPPTIRVDPEDGRPLSAGG [r13_697_TrROS]”, the results for the “folding stability dG unfold” value in data set [1] and in data set [2] were 0.397 ± 0.1 kcal/mol and -0.236 ± 0.31 kcal/mol, respectively.

Turning to “SAGGSSIEEIKEALKKGYNIKITPTTGTSTLVPVEELIKDPNITPETSLSDLGIKEITLIPPKNGKLVSAGG [r13_587_JUSTAS]”, the “folding stability dG unfold” value is 0.0152 ± 0.075 kcal/mol in data set [1] and -0.257 ± 0.25 kcal/mol in data set [2].

“SAGGSSIPRALLEAMPPDAELEFEDPSSNVRIKVTRLGPDRLEITTTVYPPGPDTPVSSETTTDPLASAGGS [r16_163_JUSTAS]”: the “folding stability dG unfold” value was 0.371 ± 0.11 kcal/mol in data set [1] and -0.124 ± 0.28 kcal/mol in data set [2].
